Values belong to the binder of their own block, whether it stands above or below them.
Tests used:
human thyroglobulin (TG) [1] = target: T1, human thyroglobulin (TG) (human, UniProt P01266 20-2768); test: flow cytometry of surface TG (anti-histidine antibody) on 293T; HLA-DRB1*15:01
T1 construct: whole, on cells; the tag is not described

[2] = target: T2, human β2-glycoprotein I (β2-GPI) (human, UniProt P02749 20-345); test: flow cytometry of surface β2-GPI on 293T; HLA-DRB1*15:01
T2 construct: whole, on cells
T2 sequence (looked up): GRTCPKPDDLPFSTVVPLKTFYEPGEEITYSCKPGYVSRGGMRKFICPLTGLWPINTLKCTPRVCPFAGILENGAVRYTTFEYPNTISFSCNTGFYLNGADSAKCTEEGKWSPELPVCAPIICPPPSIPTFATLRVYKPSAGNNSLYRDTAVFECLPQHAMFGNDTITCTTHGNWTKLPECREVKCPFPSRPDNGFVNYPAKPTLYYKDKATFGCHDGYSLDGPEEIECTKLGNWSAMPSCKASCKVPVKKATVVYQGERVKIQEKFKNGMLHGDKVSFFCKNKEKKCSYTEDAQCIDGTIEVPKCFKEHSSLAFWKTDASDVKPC

[3] = target: T2, human β2-glycoprotein I (β2-GPI); test: flow cytometry of surface β2-GPI on 293T; HLA-DRB4*01:03
human thyroglobulin (TG) [4] = target: T1, human thyroglobulin (TG); test: flow cytometry of surface TG (anti-histidine antibody) on 293T; HLA-DRB4*01:03
[5] = target: T2, human β2-glycoprotein I (β2-GPI); test: flow cytometry of surface β2-GPI on 293T; HLA-DRB3*02:02

T1 sequence (P01266 20-2768): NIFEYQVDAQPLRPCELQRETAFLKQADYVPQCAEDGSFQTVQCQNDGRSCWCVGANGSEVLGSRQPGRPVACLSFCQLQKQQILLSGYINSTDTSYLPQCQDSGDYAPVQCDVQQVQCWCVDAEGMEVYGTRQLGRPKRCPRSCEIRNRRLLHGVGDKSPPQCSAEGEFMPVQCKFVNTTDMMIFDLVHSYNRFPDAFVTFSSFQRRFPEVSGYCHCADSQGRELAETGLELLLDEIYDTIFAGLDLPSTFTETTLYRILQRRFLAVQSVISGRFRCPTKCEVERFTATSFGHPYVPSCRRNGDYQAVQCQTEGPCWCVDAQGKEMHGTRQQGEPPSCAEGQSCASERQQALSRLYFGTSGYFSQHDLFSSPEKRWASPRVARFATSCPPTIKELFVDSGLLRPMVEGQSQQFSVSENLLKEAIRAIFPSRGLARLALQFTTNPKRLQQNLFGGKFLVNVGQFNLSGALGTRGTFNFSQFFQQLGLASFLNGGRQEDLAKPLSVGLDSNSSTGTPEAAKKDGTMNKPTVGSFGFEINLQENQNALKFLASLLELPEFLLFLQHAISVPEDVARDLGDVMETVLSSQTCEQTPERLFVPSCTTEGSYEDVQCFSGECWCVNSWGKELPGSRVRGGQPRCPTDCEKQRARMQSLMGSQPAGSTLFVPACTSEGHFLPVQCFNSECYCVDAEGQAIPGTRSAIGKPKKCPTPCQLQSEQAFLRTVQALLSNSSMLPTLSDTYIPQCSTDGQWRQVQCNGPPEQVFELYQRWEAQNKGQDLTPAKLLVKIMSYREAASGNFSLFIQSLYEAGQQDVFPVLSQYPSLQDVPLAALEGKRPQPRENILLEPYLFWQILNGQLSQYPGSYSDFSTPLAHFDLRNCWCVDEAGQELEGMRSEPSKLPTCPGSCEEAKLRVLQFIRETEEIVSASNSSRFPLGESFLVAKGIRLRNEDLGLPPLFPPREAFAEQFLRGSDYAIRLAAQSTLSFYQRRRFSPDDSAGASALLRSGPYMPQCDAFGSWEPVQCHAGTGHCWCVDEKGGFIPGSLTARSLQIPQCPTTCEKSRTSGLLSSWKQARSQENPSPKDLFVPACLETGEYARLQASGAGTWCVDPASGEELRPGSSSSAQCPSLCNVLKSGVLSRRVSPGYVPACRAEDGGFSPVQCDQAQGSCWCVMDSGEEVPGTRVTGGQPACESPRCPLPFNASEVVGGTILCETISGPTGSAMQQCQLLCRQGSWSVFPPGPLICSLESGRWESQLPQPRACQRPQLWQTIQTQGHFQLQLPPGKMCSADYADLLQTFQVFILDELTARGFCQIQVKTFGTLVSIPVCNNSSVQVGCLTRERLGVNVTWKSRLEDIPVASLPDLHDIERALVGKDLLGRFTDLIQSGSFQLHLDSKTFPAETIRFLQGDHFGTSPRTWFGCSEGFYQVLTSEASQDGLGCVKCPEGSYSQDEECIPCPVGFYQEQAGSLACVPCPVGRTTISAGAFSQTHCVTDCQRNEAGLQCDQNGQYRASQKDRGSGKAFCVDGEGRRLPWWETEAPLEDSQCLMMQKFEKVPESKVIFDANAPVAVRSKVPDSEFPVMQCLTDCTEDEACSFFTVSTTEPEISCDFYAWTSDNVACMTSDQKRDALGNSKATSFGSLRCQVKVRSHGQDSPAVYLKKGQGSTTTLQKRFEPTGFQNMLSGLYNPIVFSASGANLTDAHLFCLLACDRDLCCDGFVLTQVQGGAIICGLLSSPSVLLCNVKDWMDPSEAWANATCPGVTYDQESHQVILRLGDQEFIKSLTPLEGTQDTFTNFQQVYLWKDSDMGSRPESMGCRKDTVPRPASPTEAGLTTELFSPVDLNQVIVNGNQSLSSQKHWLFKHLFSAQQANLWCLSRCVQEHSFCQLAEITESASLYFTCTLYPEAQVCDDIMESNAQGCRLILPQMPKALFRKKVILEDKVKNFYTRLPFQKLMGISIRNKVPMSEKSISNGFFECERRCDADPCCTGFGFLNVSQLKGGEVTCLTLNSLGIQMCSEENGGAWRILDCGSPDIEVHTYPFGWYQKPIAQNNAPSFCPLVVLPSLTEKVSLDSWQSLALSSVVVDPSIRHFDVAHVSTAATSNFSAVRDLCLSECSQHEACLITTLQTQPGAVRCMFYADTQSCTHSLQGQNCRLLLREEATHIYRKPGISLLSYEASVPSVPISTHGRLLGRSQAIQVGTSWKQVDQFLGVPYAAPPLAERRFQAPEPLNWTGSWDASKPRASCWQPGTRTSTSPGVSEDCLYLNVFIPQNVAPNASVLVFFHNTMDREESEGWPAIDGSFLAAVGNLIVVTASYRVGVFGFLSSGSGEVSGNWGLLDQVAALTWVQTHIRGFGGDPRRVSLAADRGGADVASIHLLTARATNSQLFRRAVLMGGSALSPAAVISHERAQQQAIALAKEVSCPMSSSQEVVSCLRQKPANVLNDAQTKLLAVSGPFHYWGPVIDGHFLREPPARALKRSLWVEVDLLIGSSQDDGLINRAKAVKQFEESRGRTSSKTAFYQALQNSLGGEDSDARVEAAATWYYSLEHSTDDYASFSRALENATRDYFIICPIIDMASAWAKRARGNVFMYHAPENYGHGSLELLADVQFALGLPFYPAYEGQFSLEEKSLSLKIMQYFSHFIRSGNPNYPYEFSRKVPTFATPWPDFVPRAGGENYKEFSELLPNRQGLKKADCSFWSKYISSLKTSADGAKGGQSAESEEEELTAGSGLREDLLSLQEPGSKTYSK

binding result (human thyroglobulin (TG) [1]): binds
binding result [2]: binds
B1: HLA-DR (HLA-DRA*01:01/HLA-DRB1*15:01) (other, human)
MHC II alpha: not shown
MHC II beta: not shown
notes: whole, on cells; also called HLA-DR15

binding result [3]: binds
binding result (human thyroglobulin (TG) [4]): binds
B2: HLA-DR (HLA-DRA*01:01/HLA-DRB4*01:03) (other, human)
MHC II alpha: not shown
MHC II beta: not shown
notes: whole, on cells; also called HLA-DR53

binding result [5]: binds
B3: HLA-DR (HLA-DRA*01:01/HLA-DRB3*02:02) (other, human)
MHC II alpha: not shown
MHC II beta: not shown
notes: whole, on cells

— US20170176432A1 (OSAKA UNIVERSITY, published 2017)
